# Patent US20170137467A1 (CHROMOTEK, published 2017)
# Where a chain is given by its changes, count along the chain named.
# T1: BC2T A6G (human)
# T1 construct: position 6 library (BC2TA6X), row G
# T1 peptide: Ac-PDRKAGVSHWQQ-NH2
# T2: BC2T A6M (human)
# T2 construct: position 6 library (BC2TA6X), row M
# T2 peptide: Ac-PDRKAMVSHWQQ-NH2
# T3: BC2T V7A (human)
# T3 construct: position 7 library, row A
# T3 peptide: Ac-PDRKAAASHWQQ-NH2
# T4: BC2T V7G (human)
# T4 construct: position 7 library, row G
# T4 peptide: Ac-PDRKAAGSHWQQ-NH2
# T5: BC2T D2G (human)
# T5 construct: position 2 library, row G
# T5 peptide: Ac-PGRKAAVSHWQQ-NH2
# T6: BC2T D2M (human)
# T6 construct: position 2 library, row M
# T6 peptide: Ac-PMRKAAVSHWQQ-NH2
# T7: BC2T R3A (human)
# T7 construct: position 3 library (BC2TR3X), row A
# T7 peptide: Ac-PDAKAAVSHWQQ-NH2
# T8: BC2T R3G (human)
# T8 construct: position 3 library (BC2TR3X), row G
# T8 peptide: Ac-PDGKAAVSHWQQ-NH2
# T9: BC2T R3V (human)
# T9 construct: position 3 library (BC2TR3X), row V
# T9 peptide: Ac-PDVKAAVSHWQQ-NH2
# T10: BC2T P1G (human)
# T10 construct: position 1 library, row G
# T10 peptide: Ac-GDRKAAVSHWQQ-NH2
# T11: BC2T K4A (human)
# T11 construct: position 4 library, row A
# T11 peptide: Ac-PDRAAAVSHWQQ-NH2
# T12: BC2T K4V (human)
# T12 construct: position 4 library, row V
# T12 peptide: Ac-PDRVAAVSHWQQ-NH2
# T13: BC2T A5G (human)
# T13 construct: position 5 library, row G
# T13 peptide: Ac-PDRKGAVSHWQQ-NH2
# T14: BC2T A5V (human)
# T14 construct: position 5 library, row V
# T14 peptide: Ac-PDRKVAVSHWQQ-NH2
# T15: BC2T A5M (human)
# T15 construct: position 5 library, row M
# T15 peptide: Ac-PDRKMAVSHWQQ-NH2
# B1: BC2 nanobody (BC2-Nb) (VHH)
# VHH: QVQLVESGGGLVQPGGSLTLSCTASGFTLDHYDIGWFRQAPGKEREGVSCINNSDDDTYYADSVKGRFTIFMDNAKDTVYLQMNSLKPEDTAIYYCAEARGCKRGRYEYDFWGQGTQVTVSS
# notes: immobilised on agarose/sepharose beads in this assay; also called BC2 nanotrap (immobilised form); not shown: C-terminal 6xHis-tag added by pHEN6 vector
# B2: BC2-NbR106S (VHH)
# VHH: B1 VHH with R106S
# notes: immobilised on beads in this assay; not shown: C-terminal 6xHis-tag added by pHEN6 vector
# B3: BC2-NbR106E (VHH)
# VHH: B1 VHH with R106E
# notes: as for B2
# Target: T1, BC2T A6G
# Assay: library pulldown, LC-MS of supernatant; ratio vs GFP-Nb control (0=captured, 1=not captured)
# Text: (§1) In total, 12 different BC2T libraries displaying all 20 proteinogenic amino acids in one single position of the peptide were used in immunoprecipitation experiments. […] The direct comparison with the GFP-Nb made it possible to determine the quantitative degree of peptide capture without the need of labeled standards. […] The more peptide was captured the more the value approximates 0. It was not possible to discriminate between isoleucine (I) and leucine (L) peptide versions since these peptides are isobaric.
# (§2) To investigate the binding specificity of the BC2T and derived mutants peptide libraries for each amino acid position of the sequence […] (SEQ ID NO:4) were synthesized with acetyl and amide groups located at the N-termini or C-termini respectively (Intavis). […] Incubations were performed in 300 μl PBS/0.01% CHAPS for 1 h on a HulaMixer (Life Technologies). Subsequent to a centrifugation step 10 μl supernatant were analyzed in a LC-MS procedure. Peptides were separated using an UltiMate3000 RSLCnano System (Thermo Scientific), composed of a C18 PepMap100μ-Precolumn (300 μm×5 mm; particle size: 5 μm; pore size: 100 Å—Thermo Scientific) and a C18 analytical column (Acclaim Rapid Separation LC (RSLC) Column: 150 mm×5 mm; particle size: 2.2 μm; pore size: 100 Å—Thermo Scientific). A step gradient was applied starting at 8% and ending after 20 min at 30% eluent B (80% acetonitrile, 20% H₂O, 0.1% formic acid).
row,ratio,Binder
1,0.7,B1
2,0.9,B2
3,0.8,B3

# Target: T16, BC2T A6(I/L1)
# T16 construct: position 6 library (BC2TA6X), row I/L1
# Assay: as above
# Text: as §1, §2
row,ratio,Binder
1,0.7,B1
2,0.8,B2
3,0.7,B3

# Target: T17, BC2T A6(I/L2)
# T17 construct: position 6 library (BC2TA6X), row I/L2
# Assay: as above
# Text: as §1, §2
row,ratio,Binder
1,0.9,B1
2,0.9,B2
3,0.8,B3

# Target: T2, BC2T A6M
# Assay: as above
# Text: as §1, §2
row,ratio,Binder
1,1,B1
2,0.9,B2
3,1,B3

# Target: T3, BC2T V7A
# Assay: as above
# Text: as §1, §2
row,ratio,Binder
1,0.4,B1
2,0.7,B2
3,0.5,B3

# Target: T4, BC2T V7G
# Assay: as above
# Text: as §1, §2
row,ratio,Binder
1,0.7,B1
2,0.8,B2
3,0.7,B3

# Target: T18, BC2T V7(I/L1)
# T18 construct: position 7 library, row I/L1
# Assay: as above
# Text: as §1, §2
row,ratio,Binder
1,0.1,B1
2,0.3,B2
3,0.1,B3

# Target: T5, BC2T D2G
# Assay: as above
# Text: as §1, §2
row,ratio,Binder
1,0.3,B1
2,0.5,B2
3,0.4,B3

# Target: T19, BC2T D2(I/L1)
# T19 construct: position 2 library, row I/L1
# Assay: as above
# Text: as §1, §2
row,ratio,Binder
1,0.1,B1
2,0.2,B2
3,0.1,B3

# Target: T6, BC2T D2M
# Assay: as above
# Text: as §1, §2
row,ratio,Binder
1,0.1,B1
2,0.2,B2
3,0.1,B3

# Target: T7, BC2T R3A
# Assay: as above
# Text: as §1, §2
row,ratio,Binder
1,0.7,B1
2,0.9,B2
3,1,B3

# Target: T8, BC2T R3G
# Assay: as above
# Text: as §1, §2
row,ratio,Binder
1,0.9,B1
2,1,B2
3,1,B3

# Target: T9, BC2T R3V
# Assay: as above
# Text: as §1, §2
row,ratio,Binder
1,0.3,B1
2,0.7,B2
3,0.5,B3

# Target: T20, BC2T R3(I/L2)
# T20 construct: position 3 library (BC2TR3X), row I/L2
# Assay: as above
# Text: as §1, §2
row,ratio,Binder
1,0.5,B1
2,0.9,B2
3,0.9,B3

# Target: T10, BC2T P1G
# Assay: as above
# Text: as §1, §2
row,ratio,Binder
1,0.4,B1
2,0.6,B2
3,0.5,B3

# Target: T11, BC2T K4A
# Assay: as above
# Text: as §1, §2
row,ratio,Binder
1,0.2,B1
2,0.6,B2
3,0.4,B3

# Target: T12, BC2T K4V
# Assay: as above
# Text: as §1, §2
row,ratio,Binder
1,0.1,B1
2,0.2,B2
3,0.1,B3

# Target: T21, BC2T K4(I/L1)
# T21 construct: position 4 library, row I/L1
# Assay: as above
# Text: as §1, §2
row,ratio,Binder
1,0.1,B1
2,0.4,B2
3,0.3,B3

# Target: T22, BC2T K4(I/L2)
# T22 construct: position 4 library, row I/L2
# Assay: as above
# Text: as §1, §2
row,ratio,Binder
1,0.2,B1
2,0.6,B2
3,0.5,B3

# Target: T23, BC2T P1(I/L1)
# T23 construct: position 1 library, row I/L1
# Assay: as above
# Text: as §1, §2
row,ratio,Binder
1,0.4,B1
2,0.7,B2
3,0.6,B3

# Target: T13, BC2T A5G
# Assay: as above
# Text: as §1, §2
row,ratio,Binder
1,0.3,B1
2,0.5,B2
3,0.4,B3

# Target: T14, BC2T A5V
# Assay: as above
# Text: as §1, §2
row,ratio,Binder
1,0.1,B1
2,0.2,B2
3,0.1,B3

# Target: T15, BC2T A5M
# Assay: as above
# Text: as §1, §2
row,ratio,Binder
1,0.1,B1
2,0.2,B2
3,0.1,B3
